Laboratory results from patent US20110283945A1.

Target: trypsin activity of mated D. melanogaster female hemolymph
Assay: cell-based or functional assay

Substance: Bowman-Birk Inhibitor (BBI), trypsin/chymotrypsin inhibitor from soybeans (from UniProt P01055 40-110)
- reduced cleavage of the trypsin substrate N-Bnz-R-pna by mated female hemolymph: 78%
